{
  "source": "patent US20240101710A1",
  "key": {"[1]": {"molecular_target": "anti-BCMA CAR clone P5A2 expressed on the cell surface", "sequence (chain, as listed by the source limits assumed)": "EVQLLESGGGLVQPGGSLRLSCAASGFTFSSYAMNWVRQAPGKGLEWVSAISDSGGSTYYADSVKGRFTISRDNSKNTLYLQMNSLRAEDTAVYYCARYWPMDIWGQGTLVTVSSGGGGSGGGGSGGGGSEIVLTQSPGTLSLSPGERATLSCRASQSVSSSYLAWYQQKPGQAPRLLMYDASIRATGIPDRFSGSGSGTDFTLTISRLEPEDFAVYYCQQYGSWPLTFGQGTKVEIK", "test": "flow cytometry, anti-id staining on the PE-A axis against APC-A, Anti-BCMA CAR Clone P5A2 cells; Q2 prints 0.42, Q4 33.1, Q1 0.15"}, "[2]": {"molecular_target": "anti-BCMA CAR clone P5A2 expressed on the cell surface", "test": "flow cytometry, SSC against CAR (anti-id) staining, cell line Anti-BCMA CAR clone P5A2, hybridoma-derived H6 at '0.063G' as printed; Q4 prints 74.0"}, "[3]": {"molecular_target": "anti-BCMA CAR clone P5A2 expressed on the cell surface", "test": "flow cytometry, SSC against CAR (anti-id) staining, cell line Anti-BCMA CAR clone P5A2, recombinant H6 at '0.063G' as printed; Q4 prints 72.4"}, "anti-BCMA scFv P5A2 [4]": {"molecular_target": "anti-BCMA scFv P5A2", "test": "Biacore (SPR); recombinant H6"}, "anti-BCMA scFv P5A2 [5]": {"molecular_target": "anti-BCMA scFv P5A2", "test": "Biacore (SPR); H6 purified from hybridoma"}},
  "data": [
    {"binder": "anti-idiotypic antibody clone E2008.51H1.H6 (H6) (antibody, V domains shown) VH: QVTLKESGPGILQPSQTLSLTCSFSGFSLNTSAMGVGWIRQPSGKGLEWLAHIWWNDDHYYNPALKSRVTISKDASNNQVFLKIASVVTADTATYYCARSIAPVVPTPFAYWGQGTLVTVSA VL: DIQMTQSSSSFSVSLGDRVTITCKASEDIYNRLAWFQQKPGNAPRLLISGATRLETGVPSRFSGSGSGKDYTLSITSLQTEDVGTYYCQQYWSSSWTFGGGTKLEIK", "values": [
      {"measurement": "percent of cells in anti-id-positive quadrant Q3", "setting": "[1]", "value": 66.3, "unit": "%"},
      {"measurement": "percent of cells in CAR-positive gate Q3", "setting": "[2]", "value": 26, "unit": "%"},
      {"measurement": "percent of cells in CAR-positive gate Q3", "setting": "[3]", "value": 27.6, "unit": "%"},
      {"measurement": "Kd", "setting": "anti-BCMA scFv P5A2 [4]", "value": 3.71, "unit": "nM"},
      {"measurement": "koff", "setting": "anti-BCMA scFv P5A2 [4]", "value": 0.00705, "unit": "s⁻¹"},
      {"measurement": "kon", "setting": "anti-BCMA scFv P5A2 [4]", "value": "1.9e+06", "unit": "M⁻¹ s⁻¹"},
      {"measurement": "t1/2", "setting": "anti-BCMA scFv P5A2 [4]", "value": 1.64, "unit": "min"},
      {"measurement": "Kd", "setting": "anti-BCMA scFv P5A2 [5]", "value": 3.73, "unit": "nM"},
      {"measurement": "koff", "setting": "anti-BCMA scFv P5A2 [5]", "value": 0.00693, "unit": "s⁻¹"},
      {"measurement": "kon", "setting": "anti-BCMA scFv P5A2 [5]", "value": "1.86e+06", "unit": "M⁻¹ s⁻¹"},
      {"measurement": "t1/2", "setting": "anti-BCMA scFv P5A2 [5]", "value": 1.67, "unit": "min"}
    ]}
  ]
}
